Measured values as given in patent US20240158494A1 (Biogen, published 2024).

T1: human transferrin receptor 2 (TfR2) overexpressed on BaF3 cells (human, UniProt Q9UP52 1-801)
T1 construct: whole, on cells
T1 sequence (looked up): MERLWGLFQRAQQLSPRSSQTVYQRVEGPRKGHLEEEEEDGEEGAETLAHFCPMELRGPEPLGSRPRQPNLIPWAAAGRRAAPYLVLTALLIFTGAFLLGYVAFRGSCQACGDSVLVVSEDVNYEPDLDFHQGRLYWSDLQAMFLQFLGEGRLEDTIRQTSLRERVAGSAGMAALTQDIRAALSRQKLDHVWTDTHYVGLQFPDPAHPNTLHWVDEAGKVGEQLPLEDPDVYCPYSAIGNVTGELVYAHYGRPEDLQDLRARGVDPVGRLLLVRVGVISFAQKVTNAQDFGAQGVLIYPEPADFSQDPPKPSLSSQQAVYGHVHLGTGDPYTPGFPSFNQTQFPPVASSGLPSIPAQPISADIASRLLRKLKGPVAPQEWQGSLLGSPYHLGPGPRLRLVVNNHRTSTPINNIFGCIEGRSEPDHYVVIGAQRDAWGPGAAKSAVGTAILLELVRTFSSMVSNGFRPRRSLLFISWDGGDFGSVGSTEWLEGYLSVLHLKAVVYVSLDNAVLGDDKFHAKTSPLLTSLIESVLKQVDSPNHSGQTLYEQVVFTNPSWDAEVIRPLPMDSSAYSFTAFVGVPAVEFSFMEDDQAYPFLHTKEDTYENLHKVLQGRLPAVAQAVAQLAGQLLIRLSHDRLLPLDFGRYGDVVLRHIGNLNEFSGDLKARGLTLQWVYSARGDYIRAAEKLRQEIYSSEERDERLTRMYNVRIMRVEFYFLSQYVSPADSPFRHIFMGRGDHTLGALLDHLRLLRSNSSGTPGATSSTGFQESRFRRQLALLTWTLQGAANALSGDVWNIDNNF


Assays:
[1] = target: T2, cynomolgus monkey transferrin receptor 1 (TfR1), full length, expressed on cells (cynomolgus monkey, UniProt Q5RDH6 1-760 (Pongo abelii entry)); experiment: FACS on Ba/F3 cells, Fab supernatant
T2 construct: also called cyno TfR1; cyTfR

[2] = target: T3, human transferrin receptor 1 (TfR1), full length, expressed on cells (human, UniProt P02786 1-760); experiment: FACS on Ba/F3 cells, Fab supernatant
T3 construct: also called human TfR1; huTfR

[3] = target: T2, cynomolgus monkey transferrin receptor …; experiment: FACS on Ba/F3 cells, purified Fab
[4] = target: T3, human transferrin receptor 1 (TfR1), …; experiment: FACS on Ba/F3 cells, purified Fab
[5] = target: T1, human transferrin receptor 2 (TfR2) …; experiment: FACS on BaF3 cells overexpressing human TfR2
[6] = target: T4, mouse transferrin receptor (TfR1) (mouse, UniProt Q62351 1-763, limits assumed); experiment: not described
T4 construct: form and assay not described; also called mouse TfR

EC50 [1] [nM]	EC50 [2] [nM]	EC50 [3] [nM]	EC50 [4] [nM]	binding result [5]	binding result [6]	Binder
3.3	11.3	1.5	7.3	–	–	TfRANTIBODY-B HC-H4C/LC-L2 (C90S) hIgG1Fab′(1C) (Fab, V domains shown, also called ANTIBODY-B H4C/L2(C90S); H4C (C90S)/L2) VH: QSLVESGGGVVQPGRSLRLSCKASGFSFSNSYWICWVRQAPGKGLEWVGCINTDADSTNYASWARGRFTISKTSSTTVYLQMNSLRAEDTAVYYCARQNNVFDPGYNLWGPGTLVTVSS VL: ELVLTQSPSTLSASVGDRVTITCRASQNIGSNLAWYQQKPGKAPKLLIYDASKLESGVPSRFSGSGSGTEFTLTISSLQPDDFATYYCQSTVRGGAYGNAFGGGTKVEIKR
2.9	7.7	3.4	5.1	–	–	TfRANTIBODY-B HC-H4C/LC-L2 (C90T) hIgG1Fab′(1C) (Fab, V domains shown, also called ANTIBODY-B H4C/L2(C90T); H4C (C90T)/L2) VH: QSLVESGGGVVQPGRSLRLSCKASGFSFSNSYWICWVRQAPGKGLEWVGCINTDADSTNYASWARGRFTISKTSSTTVYLQMNSLRAEDTAVYYCARQNNVFDPGYNLWGPGTLVTVSS VL: ELVLTQSPSTLSASVGDRVTITCRASQNIGSNLAWYQQKPGKAPKLLIYDASKLESGVPSRFSGSGSGTEFTLTISSLQPDDFATYYCQTTVRGGAYGNAFGGGTKVEIKR
5.4	12.6	3.2	13.6	–	–	TfRANTIBODY-B HC-H1C/LC-L2 (C90T) hIgG1Fab′(1C) (Fab, V domains shown, also called ANTIBODY-B H1C/L2(C90T)) VH: QSLVESGGGVVQPGRSLRLSCAASGFSFSNSYWICWVRQAPGKGLEWVGCINTDADSTNYADSVKGRFTISKDNSKNTVYLQMNSLRAEDTAVYYCARQNNVFDPGYNLWGQGTLVTVSS VL: ELVLTQSPSTLSASVGDRVTITCRASQNIGSNLAWYQQKPGKAPKLLIYDASKLESGVPSRFSGSGSGTEFTLTISSLQPDDFATYYCQTTVRGGAYGNAFGGGTKVEIKR
4.4	14.9	3.2	6.1	–	–	TfRANTIBODY-B HC-H1C/LC-L2 (C90S) hIgG1Fab′(1C) (Fab, V domains shown, also called ANTIBODY-B H1C/L2(C90S)) VH: QSLVESGGGVVQPGRSLRLSCAASGFSFSNSYWICWVRQAPGKGLEWVGCINTDADSTNYADSVKGRFTISKDNSKNTVYLQMNSLRAEDTAVYYCARQNNVFDPGYNLWGQGTLVTVSS VL: ELVLTQSPSTLSASVGDRVTITCRASQNIGSNLAWYQQKPGKAPKLLIYDASKLESGVPSRFSGSGSGTEFTLTISSLQPDDFATYYCQSTVRGGAYGNAFGGGTKVEIKR
–	–	–	–	no binding (tested: 250 nM)	–	chimeric ANTIBODY-A mAb (RabANTIBODY-A, bivalent huIgG1) (antibody, V domains shown, rabbit variable regions with a human IgG1 framework, bivalent huIgG1; also called RabAB-A) VH: QSLEESGGGLVQPGASLTLTCKASGIDFSSSGYMCWVRQAPGKGLEWIGCIYTYSSNTYYASWAKGRFTISKTSSTTVTLQMTSLTAADTATYFCARGTYGYTGYTYTMGYFSLWGPGTLVTVSS VL: ELDMTQTPASVEAAVGGTVTIKCQASQNINSYLAWYQQKPGQPPKLLIYRASTLASGVPSRFKGSGSGTEFTLTISDLECADAATYYCQSYYYSGSSNYNAFGGGTELEIL
–	–	–	–	no binding (tested: 250 nM)	–	chimeric ANTIBODY B mAb (RabANTIBODY-B, bivalent huIgG1) (antibody, V domains shown, rabbit variable regions with a human IgG1 framework, bivalent huIgG1; also called rabAB-B) VH: QSLEESGGGLVQPEGSLTLTCKASGFSFSNSYWICWVRQAPGKGLEWIGCINTDADSTNYASWARGRFTISKTSSTTVTLQMTSLTAADTASYFCARQNNVFDPGYNLWGPGTLVTVSS VL: ELVLTQTPASVSEAVGGTVTIKCQASQNIGSNLAWYQQKPGQPPKLLIYDASKLASGVPSRFSGSGSGTEFTLTISDLECADAATYYCQCTVRGGAYGNAFGGGTEVVVK
–	–	–	–	–	no binding	TfR1 ANTIBODY-A HC-H2C hIgG4Fab/LC-L0 hKappa (ΔC214) (Fab, V domains shown, also called exemplary antibody (ii)) VH: QSLVESGGGLVQPGGSLRLSCAASGIDFSSSGYMCWVRQAPGKGLEWVGCIYTYSSNTYYAASVKGRFTISKTSSTTVYLQMNSLKTEDTAVYYCARGTYGYTGYTYTMGYFSLWGQGTLVTVSS VL: DIQMTQSPSTLSASVGDRVTITCQASQNINSYLAWYQQKPGKAPKLLIYRASSLESGVPSRFSGSGSGTEFTLTISSLQPDDFATYYCQSYYYSGSSNYNAFGGGTKVEIKR
